Values of other authors, collected in PMC5081098.

Molecular target: CCL21 (Homo sapiens) (UniProt O00585)
Chain of UniProt O00585 (O00585 24-134): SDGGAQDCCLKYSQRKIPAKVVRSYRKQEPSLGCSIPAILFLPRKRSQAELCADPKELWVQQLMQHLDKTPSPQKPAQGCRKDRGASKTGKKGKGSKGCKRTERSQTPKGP

In the case of podoplanin (from UniProt Q86YL7), the Kd is given as 70 nM.
